This is an account of results in patent US20160074468A1 (GENUS ONCOLOGY, published 2016).

In experiment [1] the target is T1, HER2/ERBB2 receptor tyrosine kinase (human, UniProt P04626 23-1255).
T1 construct: whole, on cells; Endogenous HER2 in cell lysates, detected by anti-HER2 immunoblot of precipitates or GST adsorbates; also called Neu; CD340
As to the kind of experiment: co-immunoprecipitation: anti-MUC1-C precipitates of SKBR3 and BT474 lysates, immunoblot (FIG. 1B). The source says:
(FIG. 1C). […] Lysates were immunoblotted with the indicated antibodies. […] IP, immunoprecipitated.

For experiment [2], the target named is T1, HER2/ERBB2 receptor tyrosine kinase. As to the kind of experiment: GST pull-down from SKBR3 cell lysates, anti-HER2 immunoblot (FIG. 2A, left). As to the method:
Lysates from SKBR3 (left) and BT474 (right) cells were incubated with the indicated GST or GST-fusion proteins. The adsorbates were immunoblotted (IB) with anti-HER2. Input of the GST proteins was assessed by Coomassie blue staining. […] Lysates were immunoblotted with the indicated antibodies. […] Lysates were immunoblotted with the indicated antibodies. […] Cell number (mean±s.e. of three determinations) was determined by Trypan blue staining. IP, immunoprecipitated.

B1: MUC1 C-terminal subunit (MUC1-C) (other)
chain: GSVVVQLTLAFREGTINVHDVETQFNQYKTEAASRYNLTISDVSVSDVPFPFSAQSGAGVPGWGIALLVLVCVLVALAIVYLIALAVCQCRRKNYGQLDIFPARDTYHPMSEYPTYHTHGRYVPPSSTDRSPYEKVSAGNGGSSLSYTNPAVAATSANL
notes: Endogenous MUC1-C in lysates of SKBR3, BT474, SKBR3R and BT474R human breast cancer cells, precipitated with anti-MUC1-C
In the case of B1, in experiment [1], the binding result was “binds”.

B2: GST-MUC1-CD in which the CQC motif had been mutated to AQA (other, not shown: a dimerising Fc or GST; large carriers; small tags and cut ends)
chain: AQARRKNYGQLDIFPARDTYHPMSEYPTYHTHGRYVPPSSTDRSPYEKVSAGNGGSSLSYTNPAVAATSANL
notes: also called MUC1-CD(AQA)
On to B2, for which, in experiment [2], the binding result is “no binding”.
